{"source": "patent US20160097044A1", "about": "“Antimicrobial Enzyme Fusions Reduce Resistance and Kill Intracellular Staphylococcus aureus” (The United States of America, as Represented by the …, priority 2014, published 2016)", "key": {"[1]": {"system": "S. aureus Newbould 305", "test": "Minimum Inhibitory Concentration (MIC) assay", "type": "cell-based", "settings": "Mastitis isolate S. aureus Newbould 305", "description": "(§1) The Minimum Inhibitory Concentrations (MIC) of each protein for multiple S. aureus strains was determined as previously described (Jones et al. 1985. In: Manual of Clinical Microbiology, Eds. Balows et al. American Society of Microbiology, Washington D.C., pp. 972-977) with the following modifications. Enzymes were serially diluted two fold across a 96 well plate, such that after dilution, 50 μl of the enzyme solution in 300 mM NaCl, 50 mM NaH2PO4, 30% glycerol pH 7.5, remained in each well. To each well was added 50 μl of TSB and 100 μl of S. aureus Newman in TSB (diluted to 5×10^6 cells/ml). The plates were incubated 20 h at 37° C. and read with a 96 well plate reader. MIC determination values were reported as the median of ≧4 replicates (Table 1)."}, "[2]": {"system": "S. aureus Newman", "test": "Minimum Inhibitory Concentration (MIC) assay", "type": "cell-based", "description": "as §1"}, "[3]": {"system": "S. aureus ALR", "test": "Minimum Inhibitory Concentration (MIC) assay", "type": "cell-based", "description": "as §1"}, "[4]": {"system": "USA 400 (NRS 123)", "test": "Minimum Inhibitory Concentration (MIC) assay", "type": "cell-based, S. aureus", "description": "as §1"}, "[5]": {"system": "N315 (NRS 70)", "test": "Minimum Inhibitory Concentration (MIC) assay", "type": "cell-based, S. aureus", "description": "as §1"}, "[6]": {"system": "USA 100 (NRS 382)", "test": "Minimum Inhibitory Concentration (MIC) assay", "type": "cell-based, S. aureus", "description": "as §1"}, "[7]": {"system": "USA 600 (NRS 22)", "test": "Minimum Inhibitory Concentration (MIC) assay", "type": "cell-based, S. aureus", "description": "as §1"}, "[8]": {"system": "NRS 192", "test": "Minimum Inhibitory Concentration (MIC) assay", "type": "cell-based, S. aureus", "description": "as §1"}, "[9]": {"system": "NRS 271", "test": "Minimum Inhibitory Concentration (MIC) assay", "type": "cell-based, S. aureus", "description": "as §1"}, "[10]": {"system": "USA 500 (NRS 385)", "test": "Minimum Inhibitory Concentration (MIC) assay", "type": "cell-based, S. aureus", "description": "as §1"}, "[11]": {"system": "NRS 193", "test": "Minimum Inhibitory Concentration (MIC) assay", "type": "cell-based, S. aureus", "description": "as §1"}, "[12]": {"system": "NRS 209", "test": "Minimum Inhibitory Concentration (MIC) assay", "type": "cell-based, S. aureus", "description": "as §1"}, "[13]": {"system": "Sanger 252 (NRS 71)", "test": "Minimum Inhibitory Concentration (MIC) assay", "type": "cell-based, S. aureus", "description": "as §1"}, "[14]": {"system": "NRS 194", "test": "Minimum Inhibitory Concentration (MIC) assay", "type": "cell-based, S. aureus", "description": "as §1"}, "[15]": {"system": "USA 300 (NRS 384)", "test": "Minimum Inhibitory Concentration (MIC) assay", "type": "cell-based, S. aureus", "description": "as §1"}, "[16]": {"system": "USA 200 (NRS 383)", "test": "Minimum Inhibitory Concentration (MIC) assay", "type": "cell-based, S. aureus", "description": "as §1"}, "[17]": {"system": "S. hyicus MP01", "test": "Minimum Inhibitory Concentration (MIC) assay", "type": "cell-based, Staphylococcus hyicus", "settings": "Mastitis isolate S. hyicus MP01"}, "[18]": {"system": "S. aureus strain Newman", "test": "Resistance development, plate lysis repeated exposure method", "type": "cell-based", "settings": "not shown", "description": "For the plate lysis assays, purified enzymes were serially diluted in saline lysis buffer (SLB; 150 mM NaCl 10 mM Tris buffer, pH 7.5) with 15% glycerol, to yield concentrations of 100, 10, 1, and 0.1 pmoles/10 μl. S. aureus Newman was cultivated in tryptic soy broth (TSB) to an OD600 nm=0.4-0.6. The bacterial cells were harvested and diluted to yield a suspension with an OD600 nm of 0.1. Tryptic soy agar (TSA) plates were flooded with 3 ml of the bacterial cell suspension. Excess culture was removed, and the plates were air dried at room temperature for ˜30 min in a laminar flow hood. 10 μl of each peptidoglycan hydrolase dilution was then spotted onto the air-dried lawn, allowed to air dry, and the culture plates incubated overnight at 37° C. The following day, plates were evaluated visually and photographed.\nIn the Plate lysis method, bacterial cells were scraped from a sub-lethal (not fully cleared) spot from a plate lysis assay (described above), and these ‘exposed’ cells were used to inoculate 5 ml of TSB and grown for 4-6 hours to generate a new culture and lawn for subsequent exposure. Bacteria were passaged in this assay for up to 10 consecutive days, at which time the S. aureus were tested in MIC assays. Plate lysis repeated exposure experiments were performed in duplicate."}, "[19]": {"system": "S. simulans MP03", "test": "Minimum Inhibitory Concentration (MIC) assay", "type": "cell-based, Staphylococcus simulans", "settings": "Mastitis isolate S. simulans MP03"}, "[20]": {"system": "S. aureus strain Newman", "type": "cell-based", "settings": "tenth round compared to first exposure", "description": "For the MIC repeated exposure method, MIC determinations were performed with S. aureus strain Newman. 100 μl of S. aureus strain Newman culture that survived at ½ the MIC (the first well with visible growth) for each round was inoculated into 5 ml TSB and cultivated to mid-log phase growth. This culture was used as the inoculum for the next round of MIC exposure (overnight growth), and the cycle was repeated for 10 rounds.\nDevelopment of resistance to the triple-acting fusion enzymes was tested on S. aureus strain Newman and compared to both parental enzymes applied individually or simultaneously. […] Survivors of the ten round exposure to peptidoglycan hydrolase were passaged five times in medium with no peptidoglycan hydrolase added. […] We compared our triple-acting fusions to small molecule antibiotics in similar assays."}}, "data": [{"molecule": "L-K: LysK lytic domains inserted between lysostaphin's M23 endopeptidase domain and SH3b cell wall binding domain; SEQ ID NO:7, protein SEQ ID NO:8 (protein, Staphylococcus simulans & Phage K) MAATHEHSAQWLNNYKKGYGYGPYPLGINGGMHYGVDFFMNIGTPVKAISSGKIVEAGWSNYGGGNQIGLIENDGVHRQWYMHLSKYNVKVGDYVKAGQIIGWSGSTGYSTAPHLHFQRMVNSFSNSTAQDPMPFLKSAGYGKAGGTVTPTPNTGLDAKTQAEINKRLDAYAKGTVDSPYRVKKATSYDPSFGVMEAGAIDADGYYHAQCQDLITDYVLWLTDNKVRTWGNAKDQIKQSYGTGFKIHENKPSTVPKKGWIAVFTSGSYEQWGHIGIVYDGGNTSTFTILEQNWNGYANKKPTKRVDNYYGLTHFIEIPVKAGTTVKKETAKKSASKTPAPKKKATLKVSKNHINYTMDKRGKKPEGMVIHNDAGRSSGQQYENSLANAGYARYANGIAHYYGSEGYVWEAIDAKNQIAWHTGDGTGANSGNFRFAGIEVCQSMSASDAQFLKNEQAVFQFTAEKFKEWGLTPNRKTVRLHMEFVPTACPHRSMVLHTGFNPVTQGRPSQAIMNKLKDYFIKQIKNYMDKGTSSSTVVKDGKTSSASLDTVTPTPNTGWKTNKYGTLYKSESASFTPNTDIITRTTGPFRSMPQSGVLKAGQTIHYDEVMKQDGHVWVGYTGNSGQRIYLPVRTWNKSTNTLGVLWGTIKLEHHHHHH", "values": [{"measurement": "Minimum Inhibitory Conc. (median μg/ml)", "setting": "[1]", "value": 12, "unit": "µg/mL"}, {"measurement": "Minimum Inhibitory Conc. (median μg/ml)", "setting": "[2]; S. aureus Newman", "value": 7.8, "unit": "µg/mL"}, {"measurement": "First exposure MIC", "setting": "[2]; first exposure of the resistance development experiment, FIG. 1b", "value": 7.8, "unit": "µg/mL"}, {"measurement": "First exposure MIC", "setting": "[2]; first exposure, molar concentration in brackets", "value": 0.107, "unit": "µM"}, {"measurement": "MIC for S. aureus ALR (comparison for post-treatment isolates)", "setting": "[3]; N=8, value ± spread", "value": "9.4 ± 6.1", "unit": "µg/mL"}, {"measurement": "Minimum Inhibitory Conc. (median μg/ml)", "setting": "[3]; S. aureus ALR", "value": 4.4, "unit": "µg/mL"}, {"measurement": "Minimum Inhibitory Conc. (median μg/ml)", "setting": "[4]", "value": 16, "unit": "µg/mL"}, {"measurement": "Minimum Inhibitory Conc. (median μg/ml)", "setting": "[5]", "value": 16, "unit": "µg/mL"}, {"measurement": "Minimum Inhibitory Conc. (median μg/ml)", "setting": "[6]", "value": 20, "unit": "µg/mL"}, {"measurement": "Minimum Inhibitory Conc. (median μg/ml)", "setting": "[7]", "value": 6.8, "unit": "µg/mL"}, {"measurement": "Minimum Inhibitory Conc. (median μg/ml)", "setting": "[8]", "value": 16, "unit": "µg/mL"}, {"measurement": "Minimum Inhibitory Conc. (median μg/ml)", "setting": "[9]", "value": 9.8, "unit": "µg/mL"}, {"measurement": "Minimum Inhibitory Conc. (median μg/ml)", "setting": "[10]", "value": 12, "unit": "µg/mL"}, {"measurement": "Minimum Inhibitory Conc. (median μg/ml)", "setting": "[11]", "value": 12, "unit": "µg/mL"}, {"measurement": "Minimum Inhibitory Conc. (median μg/ml)", "setting": "[12]", "value": 12, "unit": "µg/mL"}, {"measurement": "Minimum Inhibitory Conc. (median μg/ml)", "setting": "[13]", "value": 6.8, "unit": "µg/mL"}, {"measurement": "Minimum Inhibitory Conc. (median μg/ml)", "setting": "[14]", "value": 12, "unit": "µg/mL"}, {"measurement": "Minimum Inhibitory Conc. (median μg/ml)", "setting": "[15]", "value": 20, "unit": "µg/mL"}, {"measurement": "Minimum Inhibitory Conc. (median μg/ml)", "setting": "[16]", "value": 5.9, "unit": "µg/mL"}, {"measurement": "Minimum Inhibitory Conc. (median μg/ml)", "setting": "[17]", "value": 0.37, "unit": "µg/mL"}, {"measurement": "increased resistance during 10 rounds of sub-lethal exposure in plate lysis assays", "setting": "[18]", "value": "no detectable increase in resistance"}, {"measurement": "Minimum Inhibitory Conc. (median μg/ml)", "setting": "[19]", "value": 5.9, "unit": "µg/mL"}, {"measurement": "increase in MIC after 10 rounds of sub-lethal exposure", "setting": "[20]", "value": 2, "unit": "fold"}]}]}
